The text below walks through data of patent US20260285971 (published 2026).

In general, EC50 refers to the concentration that produces a half-maximal response. Low values mean an effect from little substance, high ones a need for much substance.

To fix the notation:
B1: Lab04-huFc (antibody, V domains shown)
VH: EVQLQASGGGSVQAGGSLRLSCVASGFPYSTSRVGWFRQAPGKEREGVATIVPGTGYTYYADSVKGRFTISQDSAKNTVYLQMNSLKPEDTAVYYCAAGDRRLLLNLLAPADYFYWGQGTQVTVSS
B2: HAB04-H7 (antibody, V domains shown)
VH: EVQLVASGGGLVQPGGSLRLSCAASGFPYSTSRMGWFRQAPGKEREGVATIVPGTGYTYYVDSVKGRFTISQDNAKNSLYLQMNSLRAEDTAVYYCAAGDRRLLLNLLAPADYFYWGQGTMVTVSS
B3: HAB04-H3 (antibody, V domains shown)
VH: B2 VH with A6E
B4: HAB04-H8 (antibody, V domains shown)
VH: B2 VH with V5Q, A6E, A23V
B5: HAB04-H10 (antibody, V domains shown)
VH: B2 VH with N74S
B6: HAB04-H14 (antibody, V domains shown)
VH: B2 VH with V61A
B7: HAB04-H4 (antibody, V domains shown)
VH: B2 VH with A6E, N74S
B8: HAB04-H5 (antibody, V domains shown)
VH: B2 VH with A6E, M34V, L79V
B9: HAB02-H2 (antibody, V domains shown)
VH: EVQLVESGGGVVQPGRSLRLSCAASGYLYMGWFRQAPGKEREGVAVIVTQSGLTYYADSVKGRFTISQDNSKNRLYLQMNSLRAEDTAVYYCAAKSRLGWTLSPSAYNYWGRGTLVTVSS
B10: HAB02-H7 (antibody, V domains shown)
VH: B9 VH with V5Q, E6A, V46A, Y55G
B11: HAB02-H8 (antibody, V domains shown)
VH: B9 VH with V46A, Y55G, L75I
B12: HAB02-H5 (antibody, V domains shown)
VH: B9 VH with V46A, Y55G, S71A
B13: HAB02-H3 (antibody, V domains shown)
VH: B9 VH with V46A
B14: HAB02-H6 (antibody, V domains shown)
VH: B9 VH with E1D, V46A, Y55G
B15: HAB02-H4 (antibody, V domains shown)
VH: B9 VH with V46A, Y55G
B16: HAB02-H1 (antibody, V domains shown)
VH: B9 VH with Q68R
B17: Lab02-huFc (antibody, V domains shown)
VH: DVQLQASGGGSVQAGESLRLSCAASGYLYMGWFRQAPGKEREGVAAIVTQSGLTGYADSVKGRFTISQDNAENRIYLQMNSLKPEDTAMYYCAAKSRLGWTLSPSAYNYWGRGTQVTVSS
B18: HAB03-H11 (antibody, V domains shown)
VH: DVQLVESGGGLVQPGGSLRLSCAASGDTANCIGWFRQAPGKGREGVAAIYTGLGNTYYANSAKGRFTISQDNAKNSVYLQMNSLRAEDTAVYYCAAGGILGRFCSRYFGQGTMVTVSS
B19: HAB03-H9 (antibody, V domains shown)
VH: B18 VH with D1E, N30S
B20: HAB03-H8 (antibody, V domains shown)
VH: B18 VH with D1E, R43L
B21: HAB03-H5 (antibody, V domains shown)
VH: B18 VH with D1E
B22: HAB03-H10 (antibody, V domains shown)
VH: B18 VH with D1E, Q70R
B23: HAB03-H12 (antibody, V domains shown)
VH: B18 VH with D1E, E6A
B24: Lab03-huFc (antibody, V domains shown)
VH: DVQLQASGGGSVQAGGSLRLSCAASGDTANCIGWFRQAPGKGREGVAAIYTGLGNTYYANSAKGRFTIAQDNAKNTVYLQMNSLKPEDSAMYYCAAGGILGRFCSRYFGQGTQVTVSS

Numbering of substitutions follows the chain as printed.

The target in one assay is T1, human GPRC5D (human).
T1 chain: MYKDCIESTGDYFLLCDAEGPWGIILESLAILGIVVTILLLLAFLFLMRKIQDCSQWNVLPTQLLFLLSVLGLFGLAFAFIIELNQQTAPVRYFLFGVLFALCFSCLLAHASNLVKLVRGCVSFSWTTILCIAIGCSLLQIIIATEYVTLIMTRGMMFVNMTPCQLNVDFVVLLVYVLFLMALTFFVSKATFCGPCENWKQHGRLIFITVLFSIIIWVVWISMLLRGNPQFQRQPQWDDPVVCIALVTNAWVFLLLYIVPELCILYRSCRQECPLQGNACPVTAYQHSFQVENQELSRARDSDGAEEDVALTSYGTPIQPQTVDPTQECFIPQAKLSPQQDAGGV
In words: FACS RPMI-8226.
Take B1: the EC50 is 2.49 nM.
Same read-out and setting: the same measure for B2: 2.42 nM.
Molecule B3 yielded an EC50 of 2.81 nM.
Same read-out and setting: the same measure for B4: 1.68 nM; for B5: 3.05 nM.
Still for that read-out and setting: for B6 the value was 1.64 nM; for B7, 2.29 nM.
The same measure, in the same setting: for B8 the value was 2.05 nM.

In a further assay the target is T1, human GPRC5D. In words: FACS molp-8.
B9 returned an EC50 of 0.742 nM.
Still for that read-out and setting: for B10 the value was 0.547 nM; for B11, 1.06 nM; for B12, 1.06 nM.
The same measure, in the same setting: for B13 the value was 1.6 nM; for B14, 1.54 nM; for B15, 1.3 nM.
The molecule B16 gave an EC50 of 0.602 nM.
Same read-out and setting: the same measure for B17: 0.875 nM.

The next assay addresses T1, human GPRC5D. In words: FACS NCI-H929.
B9 displayed an EC50 of 0.299 nM.
Regarding B10, the EC50 was 0.22 nM.
For the molecule B11, the EC50 was 0.401 nM.
Same read-out and setting: the same measure for B12: 0.501 nM; for B13: 0.51 nM.
On the same count and under the same terms, for B14 the value was 0.317 nM; for B15, 0.438 nM.
As to B16, the response was half-maximal at 0.312 nM (EC50).
Same read-out and setting: for B17 the value was 0.672 nM.

A further assay addresses T1, human GPRC5D. In words: ELISA. In general terms: In an ELISA, binding on a coated surface is turned into a signal by an enzyme label.
Take B1: the EC50 is 0.0353 nM.
On the same count and under the same terms, for B2 the value was 0.0533 nM; for B3, 0.034 nM; for B4, 0.0311 nM.
B5 returned an EC50 of 0.0481 nM.
On the same count and under the same terms, the same measure for B6: 0.0349 nM; for B7: 0.0382 nM; for B8: 0.0333 nM.

Another assay has as its target T1, human GPRC5D. The experiment in a line: FACS NCI-H929. The source holds these as a separate data set.
In turn, B18 returned an EC50 of 1.12 nM.
For the molecule B19, a half-maximal effect (EC50) was put at 0.895 nM.
Take B20: a half-maximal response (EC50) required 1.41 nM.
Molecule B21 came in with an EC50 of 0.892 nM.
Still for that read-out and setting: the same measure for B22: 0.944 nM; for B23: 0.808 nM; for B24: 0.909 nM.

In the next assay the target is T1, human GPRC5D. The experiment in a line: FACS RPMI-8226. This is another data set of the same source.
Molecule B18 yielded an EC50 of 0.627 nM.
Same read-out and setting: the same measure for B19: 0.777 nM; for B20: 0.66 nM; for B21: 41.5 nM.
Same read-out and setting: the same measure for B22: 1.43 nM; for B23: 51.1 nM.
On the same count and under the same terms, the same measure for B24: 0.603 nM.

Another assay addresses T1, human GPRC5D. In words: FACS molp-8. This is another data set of the same source.
Molecule B18 registered an EC50 of 0.812 nM.
Molecule B19 had an EC50 of 0.849 nM.
On the same count and under the same terms, the same measure for B20: 1.22 nM; for B21: 0.738 nM; for B22: 0.762 nM.
The same measure, in the same setting: the same measure for B23: 0.642 nM.
On the same count and under the same terms, the same measure for B24: 0.599 nM.

In a further assay the target is T1, human GPRC5D. The experiment in a line: FACS RPMI-8226. This is another data set of the same source.
Turning to B9, it took 3.56 nM to reach a half-maximal effect (EC50).
B10 yielded an EC50 of 0.257 nM.
Same read-out and setting: for B11 the value was 1.5 nM; for B12, 1.76 nM.
Still for that read-out and setting: for B13 the value was 1.88 nM; for B14, 10.2 nM.
The same measure, in the same setting: the same measure for B15: 47.9 nM; for B16: 3.72 nM.
Turning to B17, the EC50 is 1.75 nM.

Another assay has as its target T1, human GPRC5D. The experiment in a line: ELISA. The source holds these as a separate data set.
As to B9, the midpoint of the response, the EC50, lay at 0.0381 nM.
Still for that read-out and setting: the same measure for B10: 0.0396 nM.
Same read-out and setting: the same measure for B11: 0.0409 nM; for B12: 0.0406 nM; for B13: 0.042 nM.
Turning to B14, a half-maximal response (EC50) required 0.0362 nM.
For the molecule B15, the EC50 was found to be 0.0395 nM.
On the same count and under the same terms, for B16 the value was 0.0405 nM; for B17, 0.053 nM.

A further assay concerns the target T1, human GPRC5D. The experiment in a line: FACS NCI-H929. The source holds these as a separate data set.
As to B1, it took 0.915 nM to reach a half-maximal effect (EC50).
The molecule B2 gave an EC50 of 1.34 nM.
On the same count and under the same terms, for B3 the value was 1.35 nM; for B4, 1.28 nM; for B5, 1.21 nM.
Still for that read-out and setting: the same measure for B6: 0.711 nM.
Same read-out and setting: the same measure for B7: 1.41 nM; for B8: 1.02 nM.

A further assay addresses T1, human GPRC5D. The experiment in a line: ELISA. This is another data set of the same source.
B18: the EC50 amounted to 0.0338 nM.
Same read-out and setting: for B19 the value was 0.0326 nM; for B20, 0.0462 nM; for B21, 0.0353 nM.
B22 had an EC50 of 0.0324 nM.
Still for that read-out and setting: for B23 the value was 0.0307 nM.
B24: the midpoint of the response, the EC50, lay at 0.0319 nM.

The next assay has as its target T1, human GPRC5D. The experiment in a line: FACS molp-8. This is another data set of the same source.
B1 came in with an EC50 of 1.97 nM.
Same read-out and setting: the same measure for B2: 2.67 nM; for B3: 3.04 nM.
The same measure, in the same setting: for B4 the value was 1.74 nM; for B5, 4.3 nM; for B6, 1.35 nM.
Still for that read-out and setting: for B7 the value was 2.71 nM.
Regarding B8, the response was half-maximal at 2.8 nM (EC50).
